1 protein from patent US20140245492 can be followed below.

For the data set, the target named is ubiquitin.

B1: MBP-AtAIRP2 (fusion of maltose-binding protein and Arabidopsis thaliana ABA Insensitive Ring Protein 2) (protein)
chain: MRKSFKDSLKALEADIQFANTLASEYPEEYDGGYVQMRLSYSPAAHLFLFLLQWTDCHFAGALGLLRILIYKAYVDGKTTMSLHERKTSIREFYDVLFPSLLQLHGGITDVEERKQKEICDKRYRKKDRTDKGKMSEIDLEREEECGICLEIRNKVVLPTCNHSMCINCYRNWRARSQSCPFCRGSLKRVNSGDLWIYTCSAEIADLPAIYKENLKRLLIYIDKLPLVTSDPNLVPYAPLPR
On to B1, for which the “Self-Ubiquitination (in vitro, with UBA1, UBC8 and ubiquitin, 30° C. for 1 hour; Western blot using MBP- and ubiquitin-specific antibodies)” value is “the molecular weight of the AtAIRP2 protein was increased through Western blot using anti-MBP antibody, and the increase was induced due to ubiquitin”.
